Measured values published in US6921496.

Molecular target: IgG (immobilised on resin in a column)
Test: IgG-functionalised resin column, about 15 min reaction, buffer wash; effluent monitored for nanoparticle luminescence

Substance: protein G-zipper fusion protein (IgG binding b2 sub-domain of streptococcal protein G, linker, basic leucine zipper tail, hexahistidine), electrostatically attached to CdSe-ZnS dihydrolipoic acid nanoparticles (from UniProt P19909 373-427)
- percent of ionic bioconjugates retained by the column: 95 to 98%
